From PMC10902665, “Stable structures or PABP1 loading protects cellular and viral RNAs against ISG20-mediated decay”

Tests used:
[1] = biological target: PABP1 (poly(A)-binding protein 1) (UniProt P11940 1-636); test: EMSA; 5 mM Mg2+; PABP1 50-500 nM, RNA 10 nM; ISG20 EMSA: 50 mM Tris-HCl pH 7.4, 150 mM NaCl, 5 mM b-mercaptoethanol, 10 mM MnCl2, 0.1 ug/ul BSA, 5% glycerol, 30 C 30 min; PABP1 EMSA: 25 mM Tris-HCl pH 7.4, 5 mM MgCl2, 100 mM NaCl, 2.5 mM DTT, 0.2 ug/ul BSA, 10% glycerol, 37 C 15 min; conditions: protein: recombinant; tags: His; label: 5' 32P; single strand
ISG20 WT = ISG20 WT (UniProt Q96AZ6 1-181); test: EMSA; 10 mM Mn2+; ISG20 50-1600 nM, RNA 10 nM; fitted curve, no Kd printed in the material; ISG20 EMSA: 50 mM Tris-HCl pH 7.4, 150 mM NaCl, 5 mM b-mercaptoethanol, 10 mM MnCl2, 0.1 ug/ul BSA, 5% glycerol, 30 C 30 min; PABP1 EMSA: 25 mM Tris-HCl pH 7.4, 5 mM MgCl2, 100 mM NaCl, 2.5 mM DTT, 0.2 ug/ul BSA, 10% glycerol, 37 C 15 min; conditions: protein: recombinant; tags: N-terminal 6xHis; label: 5' 32P; hairpin
Sequence of ISG20 WT (Q96AZ6 whole entry): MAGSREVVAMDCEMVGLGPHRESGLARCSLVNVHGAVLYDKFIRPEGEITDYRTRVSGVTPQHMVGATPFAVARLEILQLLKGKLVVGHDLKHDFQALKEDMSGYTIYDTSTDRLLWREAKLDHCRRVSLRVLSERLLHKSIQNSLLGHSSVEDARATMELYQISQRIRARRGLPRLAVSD

Sequence of PABP1 (poly(A)-binding protein 1) (P11940 whole entry): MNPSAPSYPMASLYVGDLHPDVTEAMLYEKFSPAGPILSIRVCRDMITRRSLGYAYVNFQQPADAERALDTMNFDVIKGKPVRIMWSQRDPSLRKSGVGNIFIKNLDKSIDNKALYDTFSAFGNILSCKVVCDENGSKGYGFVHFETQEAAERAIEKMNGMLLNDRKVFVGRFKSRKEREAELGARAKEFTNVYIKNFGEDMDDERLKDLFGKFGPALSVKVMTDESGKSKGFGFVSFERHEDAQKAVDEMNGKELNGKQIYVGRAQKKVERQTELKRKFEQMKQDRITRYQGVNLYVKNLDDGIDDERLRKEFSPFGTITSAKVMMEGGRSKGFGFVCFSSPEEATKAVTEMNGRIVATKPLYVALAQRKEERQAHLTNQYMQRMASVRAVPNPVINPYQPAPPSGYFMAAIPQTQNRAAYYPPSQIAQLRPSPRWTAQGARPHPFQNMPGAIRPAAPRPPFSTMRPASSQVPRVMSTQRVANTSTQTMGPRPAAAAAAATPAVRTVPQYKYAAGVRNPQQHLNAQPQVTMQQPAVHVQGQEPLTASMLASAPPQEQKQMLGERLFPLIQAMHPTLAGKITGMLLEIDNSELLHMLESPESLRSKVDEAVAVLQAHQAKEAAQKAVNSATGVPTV

Binder	binding result [1]	binding result (ISG20 WT)
ACACACACACACACACACACAAAAAAAAAAAAAAAAAAAA (ssRNA) [(AC)10A20, poly(A)-containing linear RNA]	binds	
GGGGCCAGAUCUGAGCCUGGGAGCUCUCUGGCCC (structured_RNA) [TAR-9SL]		binds
